Data on one sequence can be found in patent publication US20200339638.

Holding throughout (assay): cell_activity
The subject of data set [1] is ZFP-TF 75109 (synthetic). Conditions: expanded isoform, C9 patient fibroblasts; about 50% total C9 maintained.
The test system of data set [2] is ZFP-TF 75114 (synthetic). Conditions: expanded sense transcript, C9021 fibroblasts; total C9 preserved >50%; no repression in C9-BAC mice (p172).
Data set [3] concerns ZFP-TF 75115 (synthetic). Conditions: expanded sense transcript, C9021 fibroblasts; total C9 preserved >50%.

Consider “CACGCCCCGGCCCCGGCCCCGGCCCCTA (double strand) [C9orf72 antisense target, frame 4]”, for which the activity was 70 % repression in data set [1], above 70 % repression in data set [2] and above 70 % repression in data set [3].
